B1: library; numbered along this chain (parent)
chain: MAAAGGARLLRAASAVLGGPAGRWLHHAGSRAGSSGLLRNRGPGGSAEASRSLSVSARARSSSEDKITVHFINRDGETLTTKGKVGDSLLDVVVENNLDIDGFGACEGTLACSTCHLIFEDHIYEKLDAITDEENDMLDLAYGLTDRSRLGCQICLTKSMDNMTVRVPETVADARQSIDVGKTS

Variants of: B1
Assay: scaled log2 fold change in cell abundance, elesclomol vs control (0 = silent mean, 1 = nonsense mean) (scaled log2 ratio); higher = higher viability under elesclomol (loss of FDX1 cuproptosis function)
Conditions: glucose 10 mM
Description: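 Deep mutational scan of full-length human FDX1: a pooled saturation-mutagenesis ORF library (every residue 2-184 mutated to all 19 amino acids plus stop, and silent codons where available) was expressed by lentivirus in FDX1-knockout ABC1 (14 days) or HEK293T (11 days) cells grown with elesclomol (ES) or DMSO control. Variant abundance came from ORF sequencing. The log2 fold change (ES vs control, mean of duplicates) was centred on the silent-variant mean (0) and scaled to the nonsense-variant mean (1). Higher values mean greater viability under ES, i.e. loss of FDX1 function in cuproptosis.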

[1] = with ABC1 FDX1 KO, elesclomol 5 nM, 14 days
[2] = with HEK293T FDX1 KO, elesclomol 40 nM, 11 days
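Further: variant abundance is its share of total variant reads in each endpoint sample, from next-generation sequencing of the integrated ORF PCR-amplified out of genomic DNA.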

Variant | scaled log2 fold change [1] | scaled log2 fold change [2]
MAAAGGARLLRAASAVLGGPAGRWLHHAGFRAGSSGLLRNRGPGGSAEASRSLSVSARARSSSEDKITVHFINRDGETLTTKGKVGDSLLDVVVENNLDIDGFGACEGTLACSTCHLIFEDHIYEKLDAITDEENDMLDLAYGLTDRSRLGCQICLTKSMDNMTVRVPETVADARQSIDVGKTS | -0.244 | -0.2
MAAAGGARLLRAASAVLGGPAGRWLHHAGIRAGSSGLLRNRGPGGSAEASRSLSVSARARSSSEDKITVHFINRDGETLTTKGKVGDSLLDVVVENNLDIDGFGACEGTLACSTCHLIFEDHIYEKLDAITDEENDMLDLAYGLTDRSRLGCQICLTKSMDNMTVRVPETVADARQSIDVGKTS | 0.0124 | -0.232
MAAAGGARLLRAASAVLGGPAGRWLHHAGARAGSSGLLRNRGPGGSAEASRSLSVSARARSSSEDKITVHFINRDGETLTTKGKVGDSLLDVVVENNLDIDGFGACEGTLACSTCHLIFEDHIYEKLDAITDEENDMLDLAYGLTDRSRLGCQICLTKSMDNMTVRVPETVADARQSIDVGKTS | 0.166 | -0.0965
MAAAGGARLLRAASAVLGGPAGRWLHHAGERAGSSGLLRNRGPGGSAEASRSLSVSARARSSSEDKITVHFINRDGETLTTKGKVGDSLLDVVVENNLDIDGFGACEGTLACSTCHLIFEDHIYEKLDAITDEENDMLDLAYGLTDRSRLGCQICLTKSMDNMTVRVPETVADARQSIDVGKTS | 0.181 | -0.188
MAAAGGARLLRAASAVLGGPAGRWLHHAGHRAGSSGLLRNRGPGGSAEASRSLSVSARARSSSEDKITVHFINRDGETLTTKGKVGDSLLDVVVENNLDIDGFGACEGTLACSTCHLIFEDHIYEKLDAITDEENDMLDLAYGLTDRSRLGCQICLTKSMDNMTVRVPETVADARQSIDVGKTS | 0.109 | 0.106
MAAAGGARLLRAASAVLGGPAGRWLHHAGCRAGSSGLLRNRGPGGSAEASRSLSVSARARSSSEDKITVHFINRDGETLTTKGKVGDSLLDVVVENNLDIDGFGACEGTLACSTCHLIFEDHIYEKLDAITDEENDMLDLAYGLTDRSRLGCQICLTKSMDNMTVRVPETVADARQSIDVGKTS | 0.348 | -0.559
MAAAGGARLLRAASAVLGGPAGRWLHHAGGRAGSSGLLRNRGPGGSAEASRSLSVSARARSSSEDKITVHFINRDGETLTTKGKVGDSLLDVVVENNLDIDGFGACEGTLACSTCHLIFEDHIYEKLDAITDEENDMLDLAYGLTDRSRLGCQICLTKSMDNMTVRVPETVADARQSIDVGKTS | -0.403 | 0.208
MAAAGGARLLRAASAVLGGPAGRWLHHAGDRAGSSGLLRNRGPGGSAEASRSLSVSARARSSSEDKITVHFINRDGETLTTKGKVGDSLLDVVVENNLDIDGFGACEGTLACSTCHLIFEDHIYEKLDAITDEENDMLDLAYGLTDRSRLGCQICLTKSMDNMTVRVPETVADARQSIDVGKTS | 0.413 | 0.89
